{"source": "patent US10487337B2", "about": "“Methods for monocot plant improvement” (Agresearch Limited, priority 2014, dated 2019)", "molecules": {"B1": {"name": "Musa acuminate PPD: PEAPOD protein of Musa acuminate, SEQ ID NO: 108/114 (protein, listed as Musa acuminata)", "chain": "MNPGETTPPSPLDKPLAELTEEDIAQLTREDCRRFLKAKGMRRPSWNKSQAIQQVISLKALLEGRPGCDDCPAGGGILQKLLTSSPSEPLSPPQDSPPPAPKEGGSGSQPLAKEPSPYRRRDPIPPPYSAGNPTCQTPIAGADLPHPPEKRCPSPRLTAEVPVGQMTIFYDGMVNVYDGVSADQARSIMELAASPVCFDDPTGAFSPARPPAFRFPPGLPRPAPVPTAPSFVGTFPISPAGKRCYSYCSFRSSVSLLTTTEGPTSRKASLQRYLEKRKDRYGHLPTESILLVSGSGGGSAKGELRGHPFEGKPIPNPLLGLDSTRTGHHHHHHGS"}, "B2": {"name": "Picea sitchensis PPD: PEAPOD protein of Picea sitchensis, SEQ ID NO: 5 (protein, listed as Picea sitchensis)", "chain": "MRGGERAPGSRPSLDKPLEELTEEDIFQLTREDCRRYLKEKGMRRPSWNKSQAIQQVLSLKSLFESKPNQQSKKPSKHKPATLQFETARDSTFAQSSVSQEQSLGFSWSKEVLDKGTAERQRLCSDSQEAHEIPRLGSKPPQSNTEGKRCAHDGHGRKSAQPLVRLPANFKNDCSNRQSSHTSESQPDTLLRSDSFQQPTAQLTIFYAGMVNVYDDVPLDKA"}, "B3": {"name": "Selaginella moellendorffii PPD: PEAPOD protein of Selaginella moellendorffii, SEQ ID NO: 110/116 (protein, listed as Selaginella moellendorffii)", "chain": "MSSMVDFLGIEEKVSTSVSAERLKKLEELTDEDVMQLTREDCRRYLKEKGMRRPSWNKAQAVQQLLSLKSLCDPSPASSGAAKRSPSPPLDEAPAKKPMAMTSIDLKAAAAVDAANLTMFYDGAVSVFDDVSPDKASLFPLAYAIMLLAGNVKSWPSINVAANTNKVVISSYELPQARKASLQRFLQRRREKTAKEAASKGNSNKSPCHGESSGKHASDATDPATSPLLTEVSSGSGGGSAKGELRGHPFEGKPIPNPLLGLDSTRTGHHHHHHGS"}, "B4": {"name": "Trifolium repens PPD: PEAPOD protein of Trifolium repens, SEQ ID NO: 11 (protein, listed as Trifolium repens)", "chain": "MNGGSTVSFRSILDKPLNQLTEDDISQLTREDCRRFLKDKGMRRPSWNKSQAIQQVISLKALLEPTDDDLPAPVGVSSAIHHHHHHHPQPPQRNLNEAPVKGSDLDDTGFHTAEDLNKSTSTAVEIPTETNDANVVKSSGGCVASGSFGQMTIFYCGKVNVYDGVSPDKARSIMQLAACPSSFPQDNLLNKNAAVWASPCNIPIDKDVLFPNDTAILQVAQTDKMVEYPLQYREKGSIARDADVEGQASRNASLQRYREKRKDRGRSKGNKLTGITSSNFEMYLNLPVKLHASNGNSSRSSTDSPPQPRLPLVSGGSAENQPKVTLPIDLNDKDVQEC"}, "B5": {"name": "Amborella trichopoda PPD: PEAPOD protein of Amborella trichopoda, SEQ ID NO: 12 (protein, listed as Amborella trichopoda)", "chain": "MTAGDGSIRSILDKPLEELTEEDISQLTREDCRRYLKEKGMRRPSWNKYQAIQQVLSLKGLLEGKPCDDNSDVFSHRSPITVIPNVGSMREKEKAVNIADPEISGSHQPNFRREIHETTRERALPASDWPPSQEPVSQMTIFYAGAVNVYNDIPEDKVQAIIYLAGKSDSLQQTNVIRTGPDQCIASAASPSLNDLHSRRIHPTSNITTSQSLRVATSLPVGPHSEVPKTRKTSVQRFLEKRKDRGRLKGTLASGGSSKRGSSCLELYATSRLKSEGVATTTTQSNMNNVVVSPSNPRMPLNPGSCSWVEN"}}, "key": {"[1]": {"tested_on": "Wild-type (Col-0), Δppd mutant and transgenic PPD-OX seedlings", "test": "Hypocotyl elongation of seedlings on exogenous GA or PAC", "format": "in vivo, Arabidopsis thaliana", "text": "Giberellic acid (GA) treatment is known to reduce levels of the DELLA proteins (including RGA1) which are GA repressors; to determine the relationship between PPD, DELLA and the GA signalling pathway the applicants performed a yeast two-hybrid (Y2H) analysis between PPD and DELLA (RGA1) and applied gibberellic acid (GA) hormone and GA biosynthesis inhibitor (paclobutrazol, PAC) to wild type, Δppd mutant, and the Δppd mutant PPD over expressor (PPD-OX).\nFor exogenous applications of GA or PAC seeds were surface sterilised with 70% ethanol, 0.01% Triton X-100 for 10 min, followed by 100% ethanol for 5 min, air dried on sterile filter paper, and transferred to media plates containing half-strength MS salts, 1% sucrose and 0.8% agar. Plates were incubated for 5 days at 4° C. in the dark then transferred to 24° C. with a 14 h light/10 h dark daily cycle. Light was provided by fluorescent tubes (Philips TLD 58W/865) at an intensity of 100 μM m^−2s^−1. Wild-type (Col-0) Δppd mutant and transgenic PPD-OX seedlings were grown for five days on medium with different concentrations of GA (FIG. 11A) or PAC (FIG. 11B). GA (ACROS organics), and PAC (Sigma-Aldrich) were dissolved in ethanol and acetone respectively, filter sterilised and incorporated into media plates. Ethanol or acetone (0.5%) was used for mock treatments. Seedlings were grown at 24° C. under a 14 h light/10 h dark daily cycle for 5 days before hypocotyl lengths were analysed (n=35). Each treatment was repeated twice; error bars=standard error of the mean."}, "[2]": {"tested_on": "Arabidopsis Δppd mutant", "test": "Complementation of the Arabidopsis Δppd mutant leaf phenotype", "format": "in vivo", "details": "CaMV35s promoter, Arabidopsis thaliana ecotype Landsberg erecta, FIG. 13", "text": "The functionality of any PEAPOD sequence can be confirmed by complementation of the Arabidopsis Δppd mutant leaf phenotype. Complementation of the Arabidopsis Δppd mutant leaf phenotype was first used to identify the Arabidopsis PPD gene (White 2006). This was seen by a restoration of the wild type flattened leaf phenotype and normal rosette shape as opposed to the domed leaf and the twisting of the rosette to a “propeller” phenotype.\nArabidopsis thaliana (L.) Heynh ecotype Ler can be used as wild-type (WT). The Δppd loss of function deletion mutant (with PPD1 and PPD2 deleted) is as previously described in White 2006, PNAS 103, 13238-13243.\nPlants are grown in a temperature-controlled glasshouse at a continuous 21° C. or in a controlled environment cabinet at 23° C. in 16-h light_8-h dark cycles.\nConstructs above can be transformed into Arabidopsis by the floral dip infiltration method (Clough and Bent, 1998, Plant J 16, 735-43). The Δppd line is transformed to express the PPD polypeptides by standard techniques. Transgenic plants are confirmed by standard PCR analysis techniques with a combination of transgene-specific and T-DNA primers.\nComplementation of the Δppd line to produce a wild-type leaf and rosette phenotype in T1 seedlings (the off-spring of the infiltrated plant) confirms PEAPOD functionality of the introduced gene, which can be shown in photographs."}, "[3]": {"tested_on": "ryegrass plants", "test": "Leaf biomass analysis of grass transformants", "format": "in vivo", "details": "constitutive promoter, observed leaf growth, approximately 6 weeks", "procedure": "An equal number (typically 4-10) of tillers were taken from WT and ryegrass plants transformed with Arabidopsis PPD under one of two green tissue promoters. Tillers were planted into plastic grow bags containing potting mix and pruned to be of equal height. […] The increase in leaf/shoot biomass can be quantified removing the attached above ground portion (leaves and shoots) and drying them at 65° C. for 48 hr then weighing the dry weights.\nAn equal number (typically 4-10) of tillers were taken from WT and ryegrass plants transformed with Arabidopsis PPD under a constitutive promoter. Tillers were planted into plastic grow bags containing potting mix and pruned to be of equal height. […] The increase in leaf/shoot biomass was quantified removing the attached above ground portion (leaves and shoots) and drying them at 65° C. for 48 hr then weighing the dry weights (Table 2)."}, "[4]": {"tested_on": "ryegrass plants", "test": "Root biomass analysis of grass transformants", "format": "in vivo", "details": "constitutive promoter, root growth beyond the grow bag, approximately 6 weeks", "procedure": "An equal number (typically 4-10) of tillers were taken from WT and ryegrass plants transformed with Arabidopsis PPD under one of three root promoters. Tillers were planted into plastic grow bags containing potting mix and pruned to be of equal height. […] The increase in root biomass was quantified removing the attached above ground portion (leaves and shoots) and drying the roots at 65° C. for 48 hr then weighing the dry weights (Tables 3 and 4)\nAn equal number (typically 4-10) of tillers were taken from WT and ryegrass plants transformed with Arabidopsis PPD under a constitutive promoter. Tillers were planted into plastic grow bags containing potting mix and pruned to be of equal height. […] The increase in root biomass was quantified removing the attached above ground portion (leaves and shoots) and drying the roots at 65° C. for 48 hr then weighing the dry weights (Table 5)."}}}
{"molecule": "C=C1C[C@]23C[C@@]1(O)CC[C@H]2[C@@]12C=C[C@H](O)[C@@](C)(C(=O)O1)[C@H]2[C@@H]3C(=O)O", "note": "[GA, gibberellic acid]", "values": [{"measurement": "hypocotyl elongation", "setting": "[1]; PPD-OX seedlings, 1 μM GA, 5 days", "value": "increased hypocotyl elongation"}, {"measurement": "hypocotyl elongation", "setting": "[1]; PPD-OX seedlings, up to 10 μM GA, 5 days", "value": "hypersensitive elongation"}, {"measurement": "hypocotyl elongation", "setting": "[1]; WT seedlings, 5-50 μM GA, 5 days", "value": "elongation of the WT hypocotyl occurred in a dose dependent manner"}, {"measurement": "hypocotyl elongation", "setting": "[1]; wild type (WT) seedlings, 1 μM GA, 5 days", "value": "did not promote elongation"}, {"measurement": "hypocotyl elongation", "setting": "[1]; Δppd seedlings, 1 μM GA, 5 days", "value": "increased hypocotyl elongation"}, {"measurement": "hypocotyl elongation", "setting": "[1]; Δppd seedlings, up to 5 μM GA, 5 days", "value": "hypersensitive elongation"}]}
{"molecule": "CC(C)(C)[C@@H](O)[C@@H](Cc1ccc(Cl)cc1)n1cncn1", "note": "(racemic) [PAC, paclobutrazol]", "values": [{"measurement": "hypocotyl length", "setting": "[1]; PPD-OX seedlings, PAC beyond 0.1 μM", "value": "decrease in hypocotyl length"}, {"measurement": "hypocotyl elongation", "setting": "[1]; PPD-OX seedlings, PAC up to 0.1 μM", "value": "relatively insensitive"}, {"measurement": "hypocotyl elongation", "setting": "[1]; wild type seedlings, 0 to 10 μM PAC, 5 days", "value": "dose dependent decrease of hypocotyl elongation"}, {"measurement": "hypocotyl elongation", "setting": "[1]; Δppd seedlings, 0 to 10 μM PAC, compared with wild type", "value": "larger reduction in hypocotyl elongation"}]}
{"molecule": "B1", "values": [{"measurement": "PEAPOD functionality by complementation of the Δppd deletion mutant", "setting": "[2]", "value": "functionally equivalent"}, {"measurement": "leaf biomass/growth/length/branching compared to WT plants", "setting": "[3]", "value": "increase in leaf biomass/growth/length/branching"}, {"measurement": "root biomass/growth/length/branching compared to WT plants", "setting": "[4]", "value": "increase in root biomass/growth/length/branching"}]}
{"molecule": "B2", "values": [{"measurement": "PEAPOD functionality by complementation of the Δppd deletion mutant", "setting": "[2]", "value": "functionally equivalent"}, {"measurement": "leaf biomass/growth/length/branching compared to WT plants", "setting": "[3]", "value": "increase in leaf biomass/growth/length/branching"}, {"measurement": "root biomass/growth/length/branching compared to WT plants", "setting": "[4]", "value": "increase in root biomass/growth/length/branching"}]}
{"molecule": "B3", "values": [{"measurement": "PEAPOD functionality by complementation of the Δppd deletion mutant", "setting": "[2]", "value": "functionally equivalent"}, {"measurement": "leaf biomass/growth/length/branching compared to WT plants", "setting": "[3]", "value": "increase in leaf biomass/growth/length/branching"}, {"measurement": "root biomass/growth/length/branching compared to WT plants", "setting": "[4]", "value": "increase in root biomass/growth/length/branching"}]}
{"molecule": "B4", "values": [{"measurement": "PEAPOD functionality by complementation of the Δppd deletion mutant", "setting": "[2]", "value": "functionally equivalent"}, {"measurement": "leaf biomass/growth/length/branching compared to WT plants", "setting": "[3]", "value": "increase in leaf biomass/growth/length/branching"}, {"measurement": "root biomass/growth/length/branching compared to WT plants", "setting": "[4]", "value": "increase in root biomass/growth/length/branching"}]}
{"molecule": "B5", "values": [{"measurement": "PEAPOD functionality by complementation of the Δppd deletion mutant", "setting": "[2]", "value": "functionally equivalent"}, {"measurement": "leaf biomass/growth/length/branching compared to WT plants", "setting": "[3]", "value": "increase in leaf biomass/growth/length/branching"}, {"measurement": "root biomass/growth/length/branching compared to WT plants", "setting": "[4]", "value": "increase in root biomass/growth/length/branching"}]}
